Source: the supplement of paper PMC10126150
± gives the standard deviation of the averaged measurements.

Test system: ATP
Assay: switch fluorescence ratio, 500 uM ATP over buffer (Cy3 cluster intensity, sum of 5 cycles each) (fold (ratio)); higher = stronger signal-on switching upon ATP binding; sequences stand for … in TCGTCGGCAGCGTCAGATGTGTATAAGAGACAGTTTTTTTTTTTTTTTTTTTTTTTTT…TC
Conditions: aptamer strand: ATP DNA aptamer (quencher-CACCTGGGGGAGTATTGCGGAGGAAGG + anchor), 100 nM annealed; ATP concentration: 500 uM
Method in brief: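 Cy3-labelled switching-strand clusters on a modified Illumina MiSeq flow-cell were annealed to 100 nM quencher-labelled ATP aptamer, imaged in selection buffer, then imaged after 15 min with 500 uM ATP at 22 °C. Five buffer/ATP cycles ran, with NaOH stripping and re-annealing between them. The fluorescence ratio is summed target-cycle over summed buffer-cycle Cy3 intensity per cluster, averaged per switch-domain sequence. Clusters outside 100-1000 RFU were excluded.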
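Further: ATP exposure 15 min at 22 °C before imaging.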

| Sequence | switch fluorescence ratio |
| --- | --- |
| GAGTCTCTTA | 1 ± 0.027 |
| TACAGTTTCG | 1.03 ± 0.05 |
| ATGGGTAATC | 1.03 ± 0.026 |
| GGAAGCTTAA | 1.048 ± 0.0032 |
| TTTTGTGCGG | 0.98 ± 0.042 |
| TTTTTAACAT | 0.993 ± 0.033 |
| GGGGTGAGGG | 0.971 ± 0.032 |
| CCGTTAGCTT | 2.2 ± 0.079 |
| GAGTGTGCGC | 1.02 ± 0.03 |
| GATTAATTTT | 1.02 ± 0.043 |
| AAGCGTAAAA | 0.979 ± 0.024 |
| GGGATGGCAT | 0.995 ± 0.034 |
| AGAAGTTTGG | 0.989 ± 0.012 |
| TTTGTCGTCG | 1.004 ± 0.01 |
| TTGCTTTTTG | 0.984 ± 0.064 |
| TTTTACAAGG | 0.983 ± 0.031 |
| GAGGTACGTA | 1.01 ± 0.027 |
| TTTGAAGGGA | 0.996 ± 0.042 |
| GAGGGCAGCA | 1.01 ± 0.048 |
| AGGGGTGTCC | 1.01 ± 0.029 |
| TAAAGGTGTT | 1.09 ± 0.095 |
| CATAGGTTAT | 0.993 ± 0.048 |
| TTACTTACTT | 1.28 ± 0.081 |

| Sequence | switch fluorescence ratio |
| --- | --- |
| CTACGAGGTA | 1.045 ± 0.0027 |
| GGTCCGTCGA | 1.02 ± 0.064 |
| AAAGAGGTTT | 0.985 ± 0.034 |
| CCGGGGGACA | 1.1 ± 0.17 |
| AAATCGTGGA | 0.987 ± 0.011 |
| TGGGGTTTAT | 1.01 ± 0.02 |
| ATGTACTGGG | 1.08 ± 0.043 |
| GAATCAAGCG | 0.986 ± 0.059 |
| GGGAATGTT | 0.992 ± 0.022 |
| GATATGAGGG | 1.029 ± 0.0037 |
| TTATGTTGGG | 1.013 ± 0.0047 |
| TAAAGCAGCT | 0.965 ± 0.04 |
| CTATGGGCCG | 0.972 ± 0.028 |
| AGTTGGGGAT | 0.986 ± 0.04 |
| CAGACGCGGG | 0.99 ± 0.057 |
| CATCAAGGGA | 1.02 ± 0.045 |
| AGTCTTAATA | 0.986 ± 0.034 |
| GATTTGGGAC | 1.03 ± 0.05 |
| CTGATGTTGT | 1.0036 ± 0.00066 |
| GTGGGGGCAT | 1 ± 0.041 |
| TTTCAAATGG | 0.975 ± 0.028 |
| ATCACTTTAT | 1.38 ± 0.51 |
| GGGATTGGGT | 1.01 ± 0.021 |

| Sequence | switch fluorescence ratio |
| --- | --- |
| TTTTAATCAT | 1.6 ± 0.88 |
| TAATTTTAGC | 0.9913 ± 0.0086 |
| AAGCATGGGC | 1.02 ± 0.029 |
| GGATAGGTTT | 1.01 ± 0.034 |
| GGTGTGGCCG | 1.02 ± 0.062 |
| TTTCTCGTCG | 1 ± 0.014 |
| TCTGAGGGGA | 1.02 ± 0.055 |
| TGGCTGGTAA | 0.991 ± 0.021 |
| GAACTTGCCT | 1 ± 0.018 |
| CGTCATTTTC | 1.05 ± 0.1 |
| AAGGGGGGGG | 1.02 ± 0.055 |
| ACGTTTGTAT | 1 ± 0.031 |
| AACATGGTGC | 1.01 ± 0.011 |
| AAACGTTGCT | 1.19 ± 0.015 |
| TCCCTGGACT | 1.023 ± 0.0099 |
| ATTATAGGTT | 0.996 ± 0.0091 |
| TAAGGGGATT | 1.03 ± 0.047 |
| TGTGTTTTTT | 0.999 ± 0.02 |
| GTGTAACCTG | 1.01 ± 0.054 |
| AGATGTTCGG | 0.975 ± 0.025 |
| TTAGAACTCT | 1.01 ± 0.014 |
| TGGGATACGT | 1.55 ± 0.79 |
| TTATCGGACG | 0.969 ± 0.084 |

| Sequence | switch fluorescence ratio |
| --- | --- |
| TGCCCATAGT | 1.009 ± 0.003 |
| AATCGGGCTG | 0.962 ± 0.042 |
| TTTCGTAAGA | 0.995 ± 0.016 |
| TTACATGATG | 1.01 ± 0.013 |
| TGTTTCGGTT | 0.943 ± 0.044 |
| AATGGGTTGG | 0.9875 ± 0.0082 |
| TCGGCGAAAG | 1.02 ± 0.023 |
| TCTGATGTGA | 1.08 ± 0.044 |
| TTGCATTTTG | 0.985 ± 0.025 |
| TTTACTTACG | 1.22 ± 0.18 |
| ATCGCTATGT | 1.05 ± 0.043 |
| GCGCATGAAG | 0.983 ± 0.013 |
| TTTTAAATTG | 0.964 ± 0.023 |
| CTTTGCCTAG | 0.9806 ± 0.0088 |
| GTTAGCGCAT | 1.04 ± 0.025 |
| CGTTGTTCGC | 1.02 ± 0.028 |
| TGACGGCCAG | 1.01 ± 0.013 |
| TATTGCCTGT | 0.974 ± 0.019 |
| TTATTGAAA | 1.023 ± 0.0033 |
| TTACCCTTGG | 1.17 ± 0.05 |
| TTGGTAATGT | 1.03 ± 0.016 |
| GGCCGGGGCT | 1.01 ± 0.026 |
| GAACCTGTGT | 0.993 ± 0.052 |

| Sequence | switch fluorescence ratio |
| --- | --- |
| CGGAGTCTGT | 1.1 ± 0.048 |
| CCTGGGGCGG | 1.07 ± 0.019 |
| CGTATGAAGA | 1.02 ± 0.016 |
| GAGAGGAGGT | 1.022 ± 0.0029 |
| CCTGTGCCCG | 1.01 ± 0.041 |
| CCGCTACTGT | 2.69 ± 0.39 |
| AATATTCTAG | 0.994 ± 0.019 |
| AGTTTGTTCT | 0.999 ± 0.01 |
| ACCCGTTTTG | 1.01 ± 0.025 |
| GAGTGCAGGG | 0.994 ± 0.03 |
| GCTAACGTGC | 0.993 ± 0.046 |
| AATTGTTCGT | 0.98 ± 0.036 |
| TTGAGGAGGG | 0.962 ± 0.11 |
| TGTTGGGGGC | 1.03 ± 0.12 |
| GGAATACGAT | 1.09 ± 0.16 |
| CGTTATGGGA | 0.976 ± 0.022 |
| TATGCTGGTT | 1.05 ± 0.061 |
| GAAAAGAGTC | 1.07 ± 0.034 |
| TGGGATGAGT | 1.007 ± 0.0081 |
| TTTTTTGGAA | 1.1 ± 0.16 |
| CCGTGGGGGT | 1.054 ± 0.0029 |
| AGGGGCAGAG | 1.06 ± 0.092 |
| TGCGGGAGGG | 1.26 ± 0.35 |

| Sequence | switch fluorescence ratio |
| --- | --- |
| AGAATGTAAT | 0.9591 ± 0.0014 |
| AATATATACG | 1.0252 ± 0.00079 |
| TTTCAAAGGC | 1.17 ± 0.2 |
| TGTTAAGATA | 1.02 ± 0.092 |
| TTCGGGCCGA | 0.998 ± 0.017 |
| CTACTACTGA | 1.08 ± 0.015 |
| GGGTTGGAAT | 0.9878 ± 0.003 |
| GTGGGGTGAA | 1.03 ± 0.055 |
| GGGGTAGTTT | 1.02 ± 0.027 |
| CAGGGGGTAC | 1.09 ± 0.086 |
| AAAAAGGGGA | 1 ± 0.032 |
| AAATGGTGTC | 1.01 ± 0.055 |
| TTAATTTTTC | 1.02 ± 0.03 |
| CAATTTCGGT | 0.996 ± 0.039 |
| CGGGGAATAT | 0.993 ± 0.017 |
| AGGAGCTTTC | 1.08 ± 0.039 |
| CGTTCTATTG | 1.02 ± 0.086 |
| AGACAAGTGG | 0.957 ± 0.026 |
| TTTTACTCGA | 1.03 ± 0.014 |
| ACGTAGGTTT | 1.03 ± 0.046 |
| TCACATTAAC | 1.04 ± 0.066 |
| AATGGTGTGG | 0.995 ± 0.014 |
| AAGGACTGAA | 0.9994 ± 0.0078 |

| Sequence | switch fluorescence ratio |
| --- | --- |
| TCCTTAACTT | 1.02 ± 0.061 |
| AAGGAGGATT | 1 ± 0.028 |
| CTATGATTCG | 1.01 ± 0.023 |
| CTAAGCGGCG | 0.999 ± 0.026 |
| AGACACCCCT | 1.17 ± 0.073 |
| AGATTTTGTC | 0.972 ± 0.011 |
| ACGGGTATTA | 0.9907 ± 0.0014 |
| TATTTAGGGA | 0.987 ± 0.022 |
| CTGTTCTTTG | 0.982 ± 0.019 |
| AACCGTGGTG | 1.05 ± 0.073 |
| TCAGTAAATG | 0.969 ± 0.038 |
| GCAGTTAGCC | 1.01 ± 0.034 |
| CCCAGATTTT | 1.02 ± 0.03 |
| CCCCCGGTTT | 1.12 ± 0.044 |
| GCCGGACATT | 0.998 ± 0.02 |
| TGTTAGGATT | 0.997 ± 0.014 |
| GAGTAATGCG | 0.943 ± 0.066 |
| GAAAAAAAAA | 0.992 ± 0.023 |
| TTTAGCTTGT | 0.972 ± 0.011 |
